# Numbering of substitutions follows the chain as printed. Names may count otherwise.
# T1: recombinant full-length human RAD51 (Bio Academia) (human, UniProt Q06609 1-339)
# T1 construct: human RAD51 recombinase, recombinant full-length protein; also called hRAD51; source: bought: Bio Academia
# T1 sequence (looked up): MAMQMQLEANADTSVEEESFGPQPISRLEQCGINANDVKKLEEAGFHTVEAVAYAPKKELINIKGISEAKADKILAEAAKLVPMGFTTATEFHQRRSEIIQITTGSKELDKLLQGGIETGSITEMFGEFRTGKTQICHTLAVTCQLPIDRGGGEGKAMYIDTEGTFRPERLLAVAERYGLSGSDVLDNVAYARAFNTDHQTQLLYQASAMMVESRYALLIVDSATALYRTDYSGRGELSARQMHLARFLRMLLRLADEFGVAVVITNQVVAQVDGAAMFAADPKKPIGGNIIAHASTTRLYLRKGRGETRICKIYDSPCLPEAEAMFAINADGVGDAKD
# B1: GST-fused wild-type canine BRC3 (cBRC3) (aa 1410-1482) peptide (domain or fragment, UniProt Q8MKI9 1410-1482, looked up)
# chain: GQNIKDFDTFYLSFQTASRKNIRVSKESLNKARSLLNQKWTEEELNNFSDSLNSELLPGIDIKKTDISNHEVI
# notes: BRC repeat 3 region of canine BRCA2, aa 1410-1482; also called GST-cBRC3; wild-type cBRC3; source: Rosetta II cells (pGEX6p-1), purified (glutathione sepharose 4B)
# B2: GST-fused K1435R mutant canine BRC3 (aa 1410-1482) peptide (domain or fragment, UniProt Q8MKI9 1410-1482, looked up)
# chain: B1 chain with K26R
# notes: BRC repeat 3 region of canine BRCA2, aa 1410-1482, with the mammary tumor-derived mutation K1435R; Mutation reported from canine mammary tumor samples; also called K1435R mutant cBRC3; GST-cBRC3 with the K1435R mutation; source: Rosetta II cells (pGEX6p-1), purified (glutathione sepharose 4B)
# Molecular target: T1, recombinant full-length human RAD51 …
# Experiment: pull-down; 300 nM GST-fused peptides with 53.6 nM hRAD51 in 50 mM Tris pH 8.0, 150 mM NaCl, 1 mM EDTA, 1 mM DTT, 4°C, 1 h; captured on glutathione sepharose 4B; western blot with anti-RAD51
# Details: both partners purified
binder,measurement,value
B1,binding result,binds
B2,binding result,binds
